From paper PMC1978536, “MVB-12, a Fourth Subunit of Metazoan ESCRT-I, Functions in Receptor Downregulation” (PLoS ONE, 2007)

T1: TSG-101:6xHIS (recombinant C. elegans TSG-101) (C. elegans, UniProt O76258 1-425)
T1 construct: open reading frame amplified from N2 cDNA; source: E. coli BL21 (DE3), co-expressed from a polycistronic vector, purified (Ni-NTA, Superose 6); not shown: 6xHis, C-terminal, kept
T1 sequence (looked up): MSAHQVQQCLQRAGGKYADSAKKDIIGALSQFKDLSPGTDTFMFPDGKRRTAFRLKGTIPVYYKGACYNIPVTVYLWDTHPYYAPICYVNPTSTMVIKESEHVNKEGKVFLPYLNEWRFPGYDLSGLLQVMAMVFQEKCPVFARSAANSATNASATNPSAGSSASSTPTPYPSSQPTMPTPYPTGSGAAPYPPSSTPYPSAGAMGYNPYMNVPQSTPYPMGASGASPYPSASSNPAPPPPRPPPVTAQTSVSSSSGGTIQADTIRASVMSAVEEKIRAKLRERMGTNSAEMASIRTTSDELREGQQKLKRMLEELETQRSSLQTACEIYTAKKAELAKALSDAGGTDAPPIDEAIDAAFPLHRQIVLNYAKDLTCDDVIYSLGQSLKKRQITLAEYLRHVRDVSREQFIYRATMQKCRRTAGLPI


Experiments:
[1] = molecular target: TSG-101 (C. elegans, endogenous) (C. elegans (endogenous in embryos)); assay: SEC + other: sucrose density gradient sedimentation; C. elegans embryo extracts desalted into 50 mM Na phosphate pH 7.0, 250 mM NaCl, 1 mM EDTA, 1 mM beta-mercaptoethanol; Superose 6 and 5-20% sucrose gradient; fractions blotted for TSG-101 and MVB-12
[2] = molecular target: T1, TSG-101:6xHIS (recombinant C. elegans …); assay: SEC + other: sucrose density gradient sedimentation; TSG-101:6xHIS, VPS-28 and VPS-37 co-expressed in E. coli, purified on nickel resin; Superose 6 in 50 mM Na phosphate pH 7.0, 250 mM NaCl, 1 mM EDTA, 1 mM beta-mercaptoethanol; 5-20% sucrose gradient; Stokes radius and S-value combined to a native molecular weight; conditions: both partners purified
[3] = molecular target: T1, TSG-101:6xHIS (recombinant C. elegans …); assay: SEC + other: sucrose density gradient sedimentation; TSG-101:6xHIS, VPS-28, VPS-37 and MVB-12 co-expressed in E. coli, purified on nickel resin; Superose 6 in 50 mM Na phosphate pH 7.0, 250 mM NaCl, 1 mM EDTA, 1 mM beta-mercaptoethanol; 5-20% sucrose gradient; Stokes radius and S-value combined to a native molecular weight; conditions: both partners purified

| stoichiometry N [2] | Molecule | other results |
| --- | --- | --- |
|  | MVB-12 (C. elegans, endogenous) (from UniProt Q17687 1-277) (natural protein) | stoichiometry N [1]: 1 |
| 1 | VPS-37 (recombinant C. elegans) (natural protein, UniProt O44158 1-234, looked up, VPS-37 (CD4.4), C. elegans; open reading frame amplified from N2 cDNA) MFSQNPYESHVDVAVSAASANLRNMTNEQLISLLDDDALLESIIVNLPQVRSMPTDKESALAANKSLAEWNLAQKPRIDAAKTQTVDLYDQVKKLQGEVAVLKSQLDSVSSSKSLDTTSSLMQVAAQEADDDAEALFTQFENGEISVEIFLKQFKDKKTIAHLRKIKSDRLAALLREQTYSSYAQPTVPPPMPHAQPGYPTGNHMPGIGNIQFGSGYSGYPNISQPSAGRHPFF |  |
|  | MVB-12 (recombinant C. elegans) (natural protein, UniProt Q17687 1-277, looked up, MVB-12 (C06A6.3), C. elegans; open reading frame amplified from N2 cDNA; 277 amino acids as printed) MTELEFSADNAAPVIPITAICIVADKNKAPRGFLPIIKCQDDQTEADLWRDGFFTINRQVRYICTSTEIPDSNIKTPVQVITNLIIVRESDPIPHGYVAIDYTADSREKSLRKKYVCIRTEPRDRVVDAIGEIIILGKTKKVPRDYTSAGDIDSLLICYKVISIPQTYGIQTSNSTSNIESQAAGGLYPGLPNLSNSTPANLDVTGSSSNSAFTMKNAGAPRVKAIDGIDFKVNPMFVNSSGSNNSSQLPDLSQFNDLDRLDDKYNYSYATEHAVLS | stoichiometry N [3]: 1 |
| 1 | VPS-28 (recombinant C. elegans) (natural protein, UniProt Q9NA26 1-210, looked up, VPS-28, C. elegans; open reading frame amplified from N2 cDNA) MSSQNANLMREVRLFENHSEREQMENLSELFAVLNALEHLEKMFSRDHVSADEYKSECFKLIDQYKVTMRLVHGATSIEDFAKKYRLHCPAAIERIREGRPITVKDDQGNVLKHIASIVEQFITFLDALRLNTRAVDDLYPGLDDLYNAINTTSRVPIDAIVTTKVKKWHDRLSSMAASDEISDEDARQMIFDVESAYQAFNKALNELKH |  |
